Article doi:10.1101/651463 (bioRxiv, 2019)

What was measured:
V2R-βarr1 complex = V2R-βarr1 complex (Homo sapiens (Human). ; Rattus …, UniProt P30518;P29066); test: co-IP
C5aR1-βarr1 complex = C5aR1-βarr1 complex (Homo sapiens (Human). ; Rattus …, UniProt P21730;P29066); test: co-IP

B1: Intrabody30 (scFv, V domains shown)
VH: EVQLVESGGGLVQPGGSLRLSCAASGFNVYSSSIHWVRQAPGKGLEWVASISSYYGYTYYADSVKGRFTISADTSKNTAYLQMNSLRAEDTAVYYCARSRQFWYSGLDYWGQGTLVTVSS
VL: DIQMTQSPSSLSASVGDRVTITCRASQSVSSAVAWYQQKPGKAPKLLIYSASSLYSGVPSRFSGSRSGTDFTLTISSLQPEDFATYYCQQYKYVPVTFGQGTKVEIK
B1: binds (V2R-βarr1 complex); binds (C5aR1-βarr1 complex).
